B1: EEHEE_rd4_0647 (parent)
chain: MQVTWGNVTVTFSNPEEAKKYAEKVARKLGGQVELHNGQFRIK

Variants of B1 are the subject of the data set. Put plainly: folding stability dG (cDNA display proteolysis); higher = more stable. To be noted: PBS, room temperature.
With MQVTWGNVTVTFSNPEEAKKYAEKVARDLGGQVELHNGQFRIK [K28D], the “folding stability dG” value is 2.47 kcal/mol.

As to MQVTWGNVTVTFSNPEEAKKYAEKVARYLGGQVELHNGQFRIK [K28Y], the “folding stability dG” value amounted to 2.97 kcal/mol.

MQVTWGNVTVTFSNPEEAKKYAEKVARILGGQVELHNGQFRIK [K28I]: the “folding stability dG” value amounted to 3.18 kcal/mol.

Turning to MQVTWGGVTVTFSNPEEAKKYAEKVARKLGGQVELHNGQFRIK [N7G], the “folding stability dG” value amounted to 2.58 kcal/mol.

Regarding MQVTWGNVTVTFSNPEEAKKYAKKVARKLGGQVELHNGQFRIK [E23K], the “folding stability dG” value is 2.29 kcal/mol.

MQVTWGNVTVTFSNPEEAKKYACKVARKLGGQVELHNGQFRIK [E23C]: the “folding stability dG” value came out at 3.37 kcal/mol.

With MQVTWGNVTVTFSNPEEAKKYADKVARKLGGQVELHNGQFRIK [E23D], the “folding stability dG” value is 2.62 kcal/mol.

In the case of MQVTWGNVTVTFSNPEEAKKYAFKVARKLGGQVELHNGQFRIK [E23F], the “folding stability dG” value came out at 2.98 kcal/mol.

For the variant MQVTWGNVKVTFSNPEEAKKYAEKVARKLGGQVELHNGQFRIK [T9K], the “folding stability dG” value was 2.02 kcal/mol.

Turning to MQVTWGNVMVTFSNPEEAKKYAEKVARKLGGQVELHNGQFRIK [T9M], the “folding stability dG” value worked out at 2.15 kcal/mol.

For the variant MQVTWGNVTVTFSNPEEAKRYAEKVARKLGGQVELHNGQFRIK [K20R], the “folding stability dG” value amounted to 2.96 kcal/mol.

In the case of MQVTWGNVTVTFSNPEEAKGYAEKVARKLGGQVELHNGQFRIK [K20G], the “folding stability dG” value was found to be 2.13 kcal/mol.

In the case of MQVTWGNVTVTFSNPEEAKAYAEKVARKLGGQVELHNGQFRIK [K20A], the “folding stability dG” value was found to be 2.98 kcal/mol.

Regarding MQVTWGNVTVTFSNPEEAKKYAEKVAHKLGGQVELHNGQFRIK [R27H], the “folding stability dG” value was 2.51 kcal/mol.

Take MQVTWGNVTVTFSNPEEAKKYAEKVAAKLGGQVELHNGQFRIK [R27A]: the “folding stability dG” value came out at 2.78 kcal/mol.

As to MQVTWGNVTVTFSNPEEAKKYAEKVAQKLGGQVELHNGQFRIK [R27Q], the “folding stability dG” value was found to be 2.64 kcal/mol.

For the variant MQVTWGNVTVTFSNPEEAKKYAEKVAEKLGGQVELHNGQFRIK [R27E], the “folding stability dG” value came to 2.61 kcal/mol.

In the case of MQVTWGNVTVTFFNPEEAKKYAEKVARKLGGQVELHNGQFRIK [S13F], the “folding stability dG” value is 2.49 kcal/mol.

In the case of MQVTWGNVTVTFWNPEEAKKYAEKVARKLGGQVELHNGQFRIK [S13W], the “folding stability dG” value worked out at 2.34 kcal/mol.

With MQVTWGNVTVTFENPEEAKKYAEKVARKLGGQVELHNGQFRIK [S13E], the “folding stability dG” value came to 2.65 kcal/mol.

Turning to MQVTWGNVTVTFSNPEEAKKYAEKVARKLFGQVELHNGQFRIK [G30F], the “folding stability dG” value stood at 1.9 kcal/mol.

As to MQVTWGNVTVTFSNPEEAKKYAEKVARKLQGQVELHNGQFRIK [G30Q], the “folding stability dG” value is 2.12 kcal/mol.

Regarding MQVTWGNVTVTPSNPEEAKKYAEKVARKLGGQVELHNGQFRIK [F12P], the “folding stability dG” value is -0.871 kcal/mol.

With MQVTWGNVTVTFSNPEEAKKYAEKVARKLGGQVELHNGQFTIK [R41T], the “folding stability dG” value turned out to be 2.84 kcal/mol.

In the case of MQVTWGNVTVTFSNPEEAKKYAEKVARKLGGQVELHNGQFFIK [R41F], the “folding stability dG” value came out at 3.5 kcal/mol.

For the variant MQVTWGNVTVTFSNPEEAKKYAEKVARKLGGQVELHNGVFRIK [Q39V], the “folding stability dG” value amounted to 2.99 kcal/mol.

Turning to MQVTWGNVTVTFSNPEEAKKYAEKVARKLGGQVELHNGNFRIK [Q39N], the “folding stability dG” value worked out at 2.75 kcal/mol.

In the case of MQVTWGNVTVTFSNPEEAKKYAEKVARKLGGQVELHNGRFRIK [Q39R], the “folding stability dG” value was found to be 2.45 kcal/mol.

For the variant MQVTWGNVTVTFSNPEEYKKYAEKVARKLGGQVELHNGQFRIK [A18Y], the “folding stability dG” value worked out at 0.88 kcal/mol.

For MQVTWGNVTVTFSNPEESKKYAEKVARKLGGQVELHNGQFRIK [A18S], the “folding stability dG” value was found to be 0.985 kcal/mol.

Regarding MQVTWGNVTTTFSNPEEAKKYAEKVARKLGGQVELHNGQFRIK [V10T], the “folding stability dG” value was determined as 1.74 kcal/mol.

As for MQVTWGNVTGTFSNPEEAKKYAEKVARKLGGQVELHNGQFRIK [V10G], the “folding stability dG” value is 0.582 kcal/mol.

Take MQVTWGNVTVTFSNPEEAKKYAEKVARKLGGQVELHNKQFRIK [G38K]: the “folding stability dG” value came out at 1.81 kcal/mol.

Turning to MQVTWGNVTVTFSNPEEAKKYAEKVARKLGGQVECHNGQFRIK [L35C], the “folding stability dG” value amounted to 2.78 kcal/mol.

With MQVTWGNVTVTFSNPEEAKKYAEKVARKLGGQVEFHNGQFRIK [L35F], the “folding stability dG” value is 3.15 kcal/mol.

With MQVTWGNVTVTFSNPEEASKYAEKVARKLGGQVELHNGQFRIK [K19S], the “folding stability dG” value was 2.12 kcal/mol.

Take MQVTWGNVTVTFSNPEEAEKYAEKVARKLGGQVELHNGQFRIK [K19E]: the “folding stability dG” value stood at 2.21 kcal/mol.

As for MQVTHGNVTVTFSNPEEAKKYAEKVARKLGGQVELHNGQFRIK [W5H], the “folding stability dG” value amounted to 2.15 kcal/mol.

Regarding MQVTNGNVTVTFSNPEEAKKYAEKVARKLGGQVELHNGQFRIK [W5N], the “folding stability dG” value came to 1.12 kcal/mol.

As to MQVTMGNVTVTFSNPEEAKKYAEKVARKLGGQVELHNGQFRIK [W5M], the “folding stability dG” value turned out to be 1.83 kcal/mol.

As for MQVTKGNVTVTFSNPEEAKKYAEKVARKLGGQVELHNGQFRIK [W5K], the “folding stability dG” value worked out at 0.547 kcal/mol.

Consider MQVTWGNVTVTFSNPEEAKKYAEKYARKLGGQVELHNGQFRIK [V25Y], for which the “folding stability dG” value was found to be 1.48 kcal/mol.

With MQVTWGNVTVTFSNPEEAKKYAEKVARKLGGMVELHNGQFRIK [Q32M], the “folding stability dG” value amounted to 2.78 kcal/mol.

With MQVTWGNVTVTFSNPEEAKKYAEKVARKLGGCVELHNGQFRIK [Q32C], the “folding stability dG” value was determined as 3.47 kcal/mol.

MQVTWGNVTVTFSNPEEAKKYAEKVARKLGGNVELHNGQFRIK [Q32N]: the “folding stability dG” value was determined as 2.4 kcal/mol.

MQVTWGNVTVTFSNPEEAKKYAEKVARKLGGEVELHNGQFRIK [Q32E]: the “folding stability dG” value came to 2.76 kcal/mol.

Turning to MQVTWGNVTVTFSNPEEAKKYAEKVARKLGGDVELHNGQFRIK [Q32D], the “folding stability dG” value stood at 2.11 kcal/mol.

Turning to MQVTWANVTVTFSNPEEAKKYAEKVARKLGGQVELHNGQFRIK [G6A], the “folding stability dG” value was determined as 2.25 kcal/mol.

Take MQVTWINVTVTFSNPEEAKKYAEKVARKLGGQVELHNGQFRIK [G6I]: the “folding stability dG” value came out at 1.59 kcal/mol.

For the variant MQVTWWNVTVTFSNPEEAKKYAEKVARKLGGQVELHNGQFRIK [G6W], the “folding stability dG” value was determined as 2.76 kcal/mol.

Turning to MQVTWRNVTVTFSNPEEAKKYAEKVARKLGGQVELHNGQFRIK [G6R], the “folding stability dG” value amounted to 2.21 kcal/mol.

For MQVTWGNVTVTFSNPEEAKKYAEKVARKLGGQVELHNGQFRVK [I42V], the “folding stability dG” value stood at 2.52 kcal/mol.

In the case of MQVTWGNVTVTFSNPEEAKKYAEKVARKLGGQVELHNGQFRTK [I42T], the “folding stability dG” value is 0.547 kcal/mol.

In the case of MQVTWGNVTVTFSNPEEAKKYAEKVARKLGGQVELHNGQFRDK [I42D], the “folding stability dG” value was found to be 0.522 kcal/mol.

As to MQVTWGNVTVTFSNPWEAKKYAEKVARKLGGQVELHNGQFRIK [E16W], the “folding stability dG” value was determined as 2.75 kcal/mol.

For MQVTWGNVTVTFSNPEEAKKYAEKVARKLGGQVELENGQFRIK [H36E], the “folding stability dG” value stood at 2.78 kcal/mol.

On to MQVTWGNVTVTFSNPEEAKKYAEKVARKLGGQVELLNGQFRIK [H36L], for which the “folding stability dG” value is 2.89 kcal/mol.

For the variant MQVTWGNVTVTFSNPEEAKKYAEKVARKLGGQVELFNGQFRIK [H36F], the “folding stability dG” value worked out at 2.79 kcal/mol.

With MQVTWGNVTVTFSNPEEAKKYAEKVARKLGGQVELKNGQFRIK [H36K], the “folding stability dG” value was found to be 2.66 kcal/mol.

Values taken from the MegaScale stability set (Tsuboyama et al. 2023).
